# The supplement of paper PMC10567573
# ± gives the standard deviation.
# Assay: protein stability index of a GFP-peptide fusion (GPS, HEK-293T) (PSI 1-6); higher = more stable
# Conditions: c terminus: a fixed tail appended
# 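Further: 24-mer peptide tiles fused after GFP, lentivirally expressed, FACS-sorted into six equal bins by GFP/DsRed ratio, decoded by Illumina sequencing, PSI is the read-weighted mean bin number.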
Sequence,protein stability index (treatment: DMSO),"protein stability index (treatment: MLN4924 1 uM, 8 h)"
LSTKKSPCAGSTSLSHSPGCSSTQ [LCOR],4.35 ± 0.22,4.27 ± 0.12
LSVRSVFFGVFQSFVVLLYILDNE [CLPTM1],3.19 ± 0.75,2.92 ± 0.55
LTAKQLIKSIVEASKGCQLGKTEQ [TRIM63],2.57 ± 0.18,2.38 ± 0.6
LTALLEKYTPSNKHGFSWAVPKFM [DLC1],2.6 ± 0.57,2.09 ± 0.2
LTISPKAARVGLLQYSTQVHTEFT [MATN2],–,2.436 ± 0.019
LTMTFPAGIVRVFSGTPPPPVLSF [FCHO1],2.92 ± 0.5,3.13 ± 0.54
LTNNVDLDNTKKKMEIYQKENKDV [MNAT1],5.34 ± 0.3,5.31 ± 0.19
LTRKGLVRVVFFPLFSNWWIQVTS [PHTF1],3.06 ± 0.039,2.81 ± 0.71
LVAEILPAPGKLLGPCVVGYGIYY [SAT2],2.66 ± 0.94,2.53 ± 0.44
LVDVRQEQLQGFNTRVRELAQAAG [DNAAF3],3.67 ± 0.55,3.67 ± 0.29
LVGIFILAVSRPRSSPDDLKALTR [SCARA5],2.84 ± 0.39,2.84 ± 0.69
LVKKLQDSVLERWVNDPQRMDKRT [GOLPH3L],2.69 ± 0.14,2.93 ± 0.29
LVLSEDRKSVRYTRQKKNLPDSPL [TRIM15],3.48 ± 0.33,3.77 ± 0.15
LVNTSENLSKSRKILRSMSRKVTT [VTI1B],3.33 ± 0.29,3.57 ± 0.22
LVQLPNINRVSTCYSEEITVCGDL [PPEF2],2.42 ± 0.42,2.65 ± 0.44
LVSLTSRNPDQRKESLCISITVSK [FBXO34],2.26 ± 0.1,2.47 ± 0.15
LVTGLAIEEACYAQTIPTKDRLEG [AUH],3.02 ± 0.34,3.13 ± 0.27
LVTTGANVNETDDWGRTALHYAAA [ANKRD44],3.34 ± 0.26,3.52 ± 0.15
LVVMAPSPSESSETVLALVNCISP [DENND6A],2.4 ± 0.32,2.15 ± 0.19
LWWIAPGDETAHRIDSQFLIGDTL [MYORG],1.95 ± 0.23,2.06 ± 0.43
MACHRCLVYLGDLSRYQNELAGVD [SMG5],2.64 ± 0.7,2.54 ± 0.55
MAVLEEIQQELIKQEQSIISEYEK [RPAIN],4.28 ± 0.16,4.47 ± 0.16
MCMVMRGVQKMNSKTVTSTMLGVF [GCH1],2.31 ± 0.43,2.56 ± 0.44

Sequence,protein stability index (treatment: DMSO),"protein stability index (treatment: MLN4924 1 uM, 8 h)"
MDGRWQCSCWAWFLLVLAVVAGDT [ADAMTSL2],2.62 ± 1,2.45 ± 0.52
MEDSPLPDLRDIELKLGRKVPESL [LURAP1L],4.68 ± 0.2,4.63 ± 0.23
MEHQLLCCEVETIRRAYPDANLLN [CCND1],2.86 ± 0.24,2.87 ± 0.28
MELLCHEVDPVRRAVRDRNLLRDD [CCND2],4.28 ± 0.34,4.5 ± 0.12
MENLPGLASGPGKYMPHLCQDSSG,4.05 ± 0.067,3.93 ± 0.12
METSAPRAGSQVVATTARHSAAYR [FUNDC2],4.5 ± 0.19,4.2 ± 0.11
MEYCLEVIKENDPSGFLQISDALI [TRIM9],2.47 ± 0.29,2.69 ± 0.28
MFLQLVPSWNGSLKQLLTETDVWF [GMCL1],3.13 ± 0.68,2.56 ± 1.3
MGNSMKSTPAPAERPLPNPEGLDS [SLA],5.07 ± 0.49,5.13 ± 0.59
MGQVLPVFAHCKEAPSTASSTPDS [RTN2],4.67 ± 0.25,4.83 ± 0.23
MGWEGPNSRVDDTFWASWRAFAQI [MIR22HG],2.45 ± 0.28,2.21 ± 0.17
MHYCAVPPRGPLGQGAMFRLPTDS [NEUROD6],2.97 ± 0.29,3.17 ± 0.38
MLQSFINYCLLFLIYTVMLAFRSG [SLC35F2],2.83 ± 0.4,3.42 ± 0.28
MMMMGPKEEEQSCEYETRLPGNHS [ZNF232],4.51 ± 0.48,4.64 ± 0.4
MNKGDTEVMKCIVEVISDTLSKPS [CHGA],2.84 ± 0.3,2.86 ± 0.31
MPPGLHHQRKYTQSFCGENIMMPM [ZNF207],2.29 ± 0.6,2.27 ± 0.34
MPPQPGIPQQQGMRPPMPPHGQYG [ZNF207],4.31 ± 0.2,4.43 ± 0.11
MQRLVAWDPACLPLPPPPPAFKSM [CEBPB],2.63 ± 0.39,2.91 ± 0.39
MQVIAIVLYLMMPIVNISEVLGPL [PHTF1],3.08 ± 0.29,3.34 ± 0.38
MRHIRFLKNEVERLKKQLRAAQLQ [CCDC6],2.31 ± 0.25,2.23 ± 0.25
MRLSSSPPRGPQQLSSFGSVDWLS [VENTX],2.99 ± 0.059,3.15 ± 0.3
MRMSDTVTVKDETATMKDLEAEVK [R3HDM1],5.46 ± 0.072,5.37 ± 0.092
